Data as given in PMC12340910, “Structural basis for transport and inhibition of nucleotide sugar transport in pathogenic fungi” (Research Square, 2025).

Assays:
[1] = target: T1, CaVrg4; C. albicans Vrg4; GDP-mannose transporter Vrg4 (Candida albicans, UniProt Q5A477); test: cryo-EM structure, […] Å; format: binding; settings: complex with nanobody NB4, cytoplasmic-facing state; endogenous co-purified ligand; density suboptimal for precise ligand modelling
T1 construct: first 33 residues excluded; expressed in S. cerevisiae BJ5460 from pDDGFP-Leu2D; His-tagged GFP fusion cut by TEV; DDM/DM purified, reconstituted into liposomes; ~37 kDa
T1 sequence (Q5A477 34-371): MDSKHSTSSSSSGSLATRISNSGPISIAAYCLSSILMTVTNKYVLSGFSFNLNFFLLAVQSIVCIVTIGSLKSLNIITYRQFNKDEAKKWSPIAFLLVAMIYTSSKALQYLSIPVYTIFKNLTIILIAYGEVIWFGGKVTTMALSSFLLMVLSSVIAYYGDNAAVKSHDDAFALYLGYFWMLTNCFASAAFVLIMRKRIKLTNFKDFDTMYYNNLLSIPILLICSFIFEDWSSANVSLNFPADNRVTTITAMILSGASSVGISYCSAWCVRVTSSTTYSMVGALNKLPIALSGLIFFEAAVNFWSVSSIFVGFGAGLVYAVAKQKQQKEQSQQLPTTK

[2] = target: T2, Candida albicans Vrg4, Avi-tagged (C terminus), biotinylated (Candida albicans (UniProt Q5A477, …, UniProt Q5A477)); test: ELISA; dilution series of each nanobody captured by its Myc tag on MaxiSorp plates with protein A and anti-c-Myc antibody; 50 nM biotinylated CaVrg4 added for 40 minutes; streptavidin-peroxidase polymer, TMB, absorbance at 650 nm; KD from the 'one site - total binding' equation; settings: both partners purified
T2 construct: also called biotinylated CaVrg4; purified CaVrg4; source: S. cerevisiae BJ5460, purified as the untagged version, biotinylated using BirA ligase; not shown: Avi tag, C-terminal, kept

Nc1nc2c(ncn2[C@@H]2O[C@H](COP(=O)(O)OP(=O)(O)O[C@H]3O[C@H](CO)[C@@H](O)[C@H](O)[C@@H]3O)[C@@H](O)[C@H]2O)c(=O)[nH]1 [GDP-mannose]
cryo-EM structure, 3.4 Å [1]: in the maps obtained for the NB4-bound structure, we observed density consistent with the endogenous ligand

B1: Nanobody NB3 (VHH)
VHH: QVQLVESGGGLVQPGGSLRLSCAASGSISEINVMGWYRQAPGKQRELVARITTGGSTNYADSVKGRFTISRDNAKNTVYLQMNSLKPEDTAVYMCNAHRRVVMEWGPLGYDYWGQGTQVTVSS
notes: source: subcloned into the pSBinit vector and purified; not shown: Myc, C-terminal, kept; His, C-terminal, kept
Kd [2]: ~3 nM

B2: Nanobody NB4 (VHH)
VHH: QVQLVESGGGLVQAGGSLRLSCAASGRTFRSYTLGWFRQAPGKEREFVAAIKWSTDTTYYADSVKGRFTISGDNAKNTVYLQMNSLKPEDTAVYFCAARSLSTVIAGPEIPWPYNSWGQGTQVTVSS
notes: as for B1
Kd [2]: ~10 nM
